According to patent US20210246166A1 (Bayer, published 2021):
Numbered stars: 1 amine (or outer) side, 2 acyl side, 3 side chain; on linkers, the order of the positions; unused ones are H or OH. Bridge positions count the residues as written; N and C are the ends. Square brackets hold non-standard residues; d marks the D form. Ends that are not written are not given here. X13 = (2S)‑2‑amino‑3‑(1-methylcyclopropyl)propanoic acid, CC1(C[C@H](N[*:1])C(=O)[*:2])CC1; Pro(cis-4-CF3) = O=C(O)[C@@H]1C[C@H](C(F)(F)F)CN1; Oic = O=C(O)[C@@H]1C[C@@H]2CCCC[C@@H]2N1; PEG8 = NCCOCCOCCOCCOCCOCCOCCOCCOCCC(=O)O; PEG7 = NCCOCCOCCOCCOCCOCCOCCOCCC(=O)O; PEG6 = NCCOCCOCCOCCOCCOCCOCCC(=O)O; tBuAla = CC(C)(C)C[C@H](N)C(=O)O; PEG4 = NCCOCCOCCOCCOCCC(=O)O; Pen = CC(C)(S)[C@H](N)C(=O)O; Tranexamic = tranexamic acid; 4Amb = NCc1ccc(C(=O)O)cc1; NMeC = CN[C@@H](CS)C(=O)O; Nva = CCC[C@H](N)C(=O)O; PEG2 = NCCOCCOCCC(=O)O; Sar = CNCC(=O)O

T1: recombinant rat MASP1 active protease (amino acids 302-704, C-terminal His Tag) (rat, UniProt Q8CHN8 302-704)
T1 sequence: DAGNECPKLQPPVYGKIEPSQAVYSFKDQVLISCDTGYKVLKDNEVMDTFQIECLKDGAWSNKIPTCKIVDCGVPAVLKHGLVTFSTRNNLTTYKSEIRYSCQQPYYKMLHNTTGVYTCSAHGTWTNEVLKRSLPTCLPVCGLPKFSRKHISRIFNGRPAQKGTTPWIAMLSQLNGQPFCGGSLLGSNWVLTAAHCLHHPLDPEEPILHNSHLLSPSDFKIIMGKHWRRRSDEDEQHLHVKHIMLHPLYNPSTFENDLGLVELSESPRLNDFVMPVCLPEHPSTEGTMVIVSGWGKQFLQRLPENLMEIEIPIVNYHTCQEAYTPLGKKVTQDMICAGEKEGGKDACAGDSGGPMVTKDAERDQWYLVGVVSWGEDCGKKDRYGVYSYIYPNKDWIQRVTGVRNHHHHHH

B1: Example 174: ((N-Me)G)-IC+SRS-((tBu)A)-PPI-(Pen)+IP-(PEG3(16atoms))-NH2 (peptide)
peptide: [Sar]ICSRS[tBuAla]PPI[Pen]IP[PEG4]-NH2
modifications: disulfide 3-11; N-terminus assumed
SMILES: CC[C@H](C)[C@H](NC(=O)CNC)C(=O)N[C@H]1CSSC(C)(C)[C@@H](C(=O)N[C@H](C(=O)N2CCC[C@H]2C(=O)NCCOCCOCCOCCOCCC(N)=O)[C@@H](C)CC)NC(=O)[C@H]([C@@H](C)CC)NC(=O)[C@@H]2CCCN2C(=O)[C@@H]2CCCN2C(=O)[C@H](CC(C)(C)C)NC(=O)[C@H](CO)NC(=O)[C@H](CCCNC(=N)N)NC(=O)[C@H](CO)NC1=O
B2: Example 168: ((N-Me)G)-IC+SRSLP-(Oic)-I-(Pen)+IP-(PEG8(28 atoms))-NH2 (peptide)
peptide: [Sar]ICSRSLP[Oic]I[Pen]IP[PEG8]-NH2
modifications: disulfide 3-11; N-terminus assumed
SMILES: CC[C@H](C)[C@H](NC(=O)CNC)C(=O)N[C@H]1CSSC(C)(C)[C@@H](C(=O)N[C@H](C(=O)N2CCC[C@H]2C(=O)NCCOCCOCCOCCOCCOCCOCCOCCOCCC(N)=O)[C@@H](C)CC)NC(=O)[C@H]([C@@H](C)CC)NC(=O)[C@@H]2C[C@@H]3CCCC[C@@H]3N2C(=O)[C@@H]2CCCN2C(=O)[C@H](CC(C)C)NC(=O)[C@H](CO)NC(=O)[C@H](CCCNC(=N)N)NC(=O)[C@H](CO)NC1=O
B3: Example 156: ((N-Me)G)-IC+SRS-((tBu)A)-PPI-(Pen)+IP-NH2 (peptide)
peptide: [Sar]ICSRS[tBuAla]PPI[Pen]IP-NH2
modifications: disulfide 3-11; N-terminus assumed
SMILES: CC[C@H](C)[C@H](NC(=O)CNC)C(=O)N[C@H]1CSSC(C)(C)[C@@H](C(=O)N[C@H](C(=O)N2CCC[C@H]2C(N)=O)[C@@H](C)CC)NC(=O)[C@H]([C@@H](C)CC)NC(=O)[C@@H]2CCCN2C(=O)[C@@H]2CCCN2C(=O)[C@H](CC(C)(C)C)NC(=O)[C@H](CO)NC(=O)[C@H](CCCNC(=N)N)NC(=O)[C@H](CO)NC1=O
B4: Example 197: ((N-Me)G)-IC+SRS-((2S)-2-amino-3-(1-methylcyclopropyl)propanoic acid)-PPI-(Pen)+IP-NH2 (peptide)
peptide: [Sar]ICSRS[X13]PPI[Pen]IP-NH2
modifications: disulfide 3-11; N-terminus assumed
SMILES: CC[C@H](C)[C@H](NC(=O)CNC)C(=O)N[C@H]1CSSC(C)(C)[C@@H](C(=O)N[C@H](C(=O)N2CCC[C@H]2C(N)=O)[C@@H](C)CC)NC(=O)[C@H]([C@@H](C)CC)NC(=O)[C@@H]2CCCN2C(=O)[C@@H]2CCCN2C(=O)[C@H](CC2(C)CC2)NC(=O)[C@H](CO)NC(=O)[C@H](CCCNC(=N)N)NC(=O)[C@H](CO)NC1=O
B5: Example 158: AIC+SRS-((tBu)A)-P-((4-CF3)P)-IC+IPD-NH2 (peptide)
peptide: AICSRS[tBuAla]P[Pro(cis-4-CF3)]ICIPD-NH2
modifications: disulfide 3-11; N-terminus assumed
SMILES: CC[C@H](C)[C@H](NC(=O)[C@H](C)N)C(=O)N[C@H]1CSSC[C@@H](C(=O)N[C@H](C(=O)N2CCC[C@H]2C(=O)N[C@@H](CC(=O)O)C(N)=O)[C@@H](C)CC)NC(=O)[C@H]([C@@H](C)CC)NC(=O)[C@@H]2C[C@H](C(F)(F)F)CN2C(=O)[C@@H]2CCCN2C(=O)[C@H](CC(C)(C)C)NC(=O)[C@H](CO)NC(=O)[C@H](CCCNC(=N)N)NC(=O)[C@H](CO)NC1=O
B6: Example 153: AIC+SRSLP-(Oic)-IC+IPD-OH (peptide)
peptide: AICSRSLP[Oic]ICIPD-OH
modifications: disulfide 3-11; N-terminus assumed
SMILES: CC[C@H](C)[C@H](NC(=O)[C@H](C)N)C(=O)N[C@H]1CSSC[C@@H](C(=O)N[C@H](C(=O)N2CCC[C@H]2C(=O)N[C@@H](CC(=O)O)C(=O)O)[C@@H](C)CC)NC(=O)[C@H]([C@@H](C)CC)NC(=O)[C@@H]2C[C@@H]3CCCC[C@@H]3N2C(=O)[C@@H]2CCCN2C(=O)[C@H](CC(C)C)NC(=O)[C@H](CO)NC(=O)[C@H](CCCNC(=N)N)NC(=O)[C@H](CO)NC1=O
B7: Example 199: A-(Nva)-C+SRS-((tBu)A)-PPI-(Pen)+IPD-NH2 (peptide)
peptide: A[Nva]CSRS[tBuAla]PPI[Pen]IPD-NH2
modifications: disulfide 3-11; N-terminus assumed
SMILES: CCC[C@H](NC(=O)[C@H](C)N)C(=O)N[C@H]1CSSC(C)(C)[C@@H](C(=O)N[C@H](C(=O)N2CCC[C@H]2C(=O)N[C@@H](CC(=O)O)C(N)=O)[C@@H](C)CC)NC(=O)[C@H]([C@@H](C)CC)NC(=O)[C@@H]2CCCN2C(=O)[C@@H]2CCCN2C(=O)[C@H](CC(C)(C)C)NC(=O)[C@H](CO)NC(=O)[C@H](CCCNC(=N)N)NC(=O)[C@H](CO)NC1=O
B8: Example 170: AIC+SRSLPPI-(Pen)+IPD-NH2 (peptide)
peptide: AICSRSLPPI[Pen]IPD-NH2
modifications: disulfide 3-11; N-terminus assumed
SMILES: CC[C@H](C)[C@H](NC(=O)[C@H](C)N)C(=O)N[C@H]1CSSC(C)(C)[C@@H](C(=O)N[C@H](C(=O)N2CCC[C@H]2C(=O)N[C@@H](CC(=O)O)C(N)=O)[C@@H](C)CC)NC(=O)[C@H]([C@@H](C)CC)NC(=O)[C@@H]2CCCN2C(=O)[C@@H]2CCCN2C(=O)[C@H](CC(C)C)NC(=O)[C@H](CO)NC(=O)[C@H](CCCNC(=N)N)NC(=O)[C@H](CO)NC1=O
B9: Example 146: ((N-Me)G)-IC+SRSLP-(Oic)-I-(Pen)+IPD-(PEG5(22 atoms))-NH2 (peptide)
peptide: [Sar]ICSRSLP[Oic]I[Pen]IPD[PEG6]-NH2
modifications: disulfide 3-11; N-terminus assumed
SMILES: CC[C@H](C)[C@H](NC(=O)CNC)C(=O)N[C@H]1CSSC(C)(C)[C@@H](C(=O)N[C@H](C(=O)N2CCC[C@H]2C(=O)N[C@@H](CC(=O)O)C(=O)NCCOCCOCCOCCOCCOCCOCCC(N)=O)[C@@H](C)CC)NC(=O)[C@H]([C@@H](C)CC)NC(=O)[C@@H]2C[C@@H]3CCCC[C@@H]3N2C(=O)[C@@H]2CCCN2C(=O)[C@H](CC(C)C)NC(=O)[C@H](CO)NC(=O)[C@H](CCCNC(=N)N)NC(=O)[C@H](CO)NC1=O
B10: Example 187: (4-(Aminomethyl)benzoic acid)-IC+SRS-((tBu)A)-PPI-(Pen)+IPD-NH2 (peptide)
peptide: [4Amb]ICSRS[tBuAla]PPI[Pen]IPD-NH2
modifications: disulfide 3-11; N-terminus assumed
SMILES: CC[C@H](C)[C@H](NC(=O)c1ccc(CN)cc1)C(=O)N[C@H]1CSSC(C)(C)[C@@H](C(=O)N[C@H](C(=O)N2CCC[C@H]2C(=O)N[C@@H](CC(=O)O)C(N)=O)[C@@H](C)CC)NC(=O)[C@H]([C@@H](C)CC)NC(=O)[C@@H]2CCCN2C(=O)[C@@H]2CCCN2C(=O)[C@H](CC(C)(C)C)NC(=O)[C@H](CO)NC(=O)[C@H](CCCNC(=N)N)NC(=O)[C@H](CO)NC1=O
B11: Example 150: ((N-Me)G)-IC+SRSLP-(Oic)-I-(Pen)+IP-(PEG7(25 atoms))-NH2 (peptide)
peptide: [Sar]ICSRSLP[Oic]I[Pen]IP[PEG7]-NH2
modifications: disulfide 3-11; N-terminus assumed
SMILES: CC[C@H](C)[C@H](NC(=O)CNC)C(=O)N[C@H]1CSSC(C)(C)[C@@H](C(=O)N[C@H](C(=O)N2CCC[C@H]2C(=O)NCCOCCOCCOCCOCCOCCOCCOCCC(N)=O)[C@@H](C)CC)NC(=O)[C@H]([C@@H](C)CC)NC(=O)[C@@H]2C[C@@H]3CCCC[C@@H]3N2C(=O)[C@@H]2CCCN2C(=O)[C@H](CC(C)C)NC(=O)[C@H](CO)NC(=O)[C@H](CCCNC(=N)N)NC(=O)[C@H](CO)NC1=O
B12: Example 185: AIC+SRSLP-(Oic)-I-((N-Me)C)+IPD-NH2 (peptide)
peptide: AICSRSLP[Oic]I[NMeC]IPD-NH2
modifications: disulfide 3-11; N-terminus assumed
SMILES: CC[C@H](C)[C@H](NC(=O)[C@H](C)N)C(=O)N[C@H]1CSSC[C@@H](C(=O)N[C@H](C(=O)N2CCC[C@H]2C(=O)N[C@@H](CC(=O)O)C(N)=O)[C@@H](C)CC)N(C)C(=O)[C@H]([C@@H](C)CC)NC(=O)[C@@H]2C[C@@H]3CCCC[C@@H]3N2C(=O)[C@@H]2CCCN2C(=O)[C@H](CC(C)C)NC(=O)[C@H](CO)NC(=O)[C@H](CCCNC(=N)N)NC(=O)[C@H](CO)NC1=O

Molecular target: T1, recombinant rat MASP1 active protease …
Assay: cell-based or functional assay

Binder | rat MASP1 IC50
B1 | 65.6 nM
B2 | 140 nM
B3 | 21 nM
B4 | 100 nM
AICSRS[tBuAla]PPI[Pen]IP[Tranexamic]-NH2 (disulfide 3-11) [Example 171: AIC+SRS-((tBu)A)-PPI-(Pen)+IP-(Tranexamic)-NH2] | 42 nM
B5 | 247 nM
B6 | 40 nM
B7 | 180 nM
[Sar]ICSRSLP[Oic]I[Pen]I[5‑Azaspiro(2.4)heptane‑1‑carboxylic acid]-OH (disulfide 3-11) [Example 194: ((N-Me)G)-IC+SRSLP-(Oic)-I-(Pen)+I-((5-Azaspiro[2.4]heptane-1-carboxylic acid)-OH] | 70 nM
B8 | 54 nM
B9 | 110 nM
B10 | 77 nM
B11 | 120 nM
B12 | 57 nM
[Sar]ICSRS[tBuAla]PPI[Pen]IP-{PEG2-NH2} (disulfide 3-11) [Example 207: ((N-Me)G)-IC+SRS-((tBu)A)-PPI-(Pen)+IP-(PEG1(10 atoms))-NH2] | 43 nM

Molecular target: recombinant rat MASP2 active protease (amino acids 296-685, C-terminal His Tag) (rat, UniProt Q9JJS8 296-685)
Assay: cell-based or functional assay

Chain of recombinant rat MASP2 active protease (amino acids 296-685, C-terminal His Tag) (Q9JJS8 other isoform, or with tags, fused parts or gaps limits assumed): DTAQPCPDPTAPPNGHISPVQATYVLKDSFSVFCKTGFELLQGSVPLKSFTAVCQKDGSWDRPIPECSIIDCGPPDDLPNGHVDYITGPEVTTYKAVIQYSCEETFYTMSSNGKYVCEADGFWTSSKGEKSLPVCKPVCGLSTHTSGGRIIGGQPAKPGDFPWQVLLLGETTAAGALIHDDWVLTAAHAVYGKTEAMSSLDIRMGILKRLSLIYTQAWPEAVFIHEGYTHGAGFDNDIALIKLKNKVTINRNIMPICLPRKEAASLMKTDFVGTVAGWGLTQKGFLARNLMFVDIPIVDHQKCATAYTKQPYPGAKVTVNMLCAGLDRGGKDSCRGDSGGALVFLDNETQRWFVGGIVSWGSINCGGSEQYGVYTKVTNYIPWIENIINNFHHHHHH

Binder | rat MASP2 IC50
B1 | 35.1 nM
B2 | 53 nM
B3 | 16 nM
B4 | 15 nM
AICSRS[tBuAla]PPI[Pen]IP[Tranexamic]-NH2 (disulfide 3-11) [Example 171: AIC+SRS-((tBu)A)-PPI-(Pen)+IP-(Tranexamic)-NH2] | 21 nM
B5 | 420 nM
B6 | 50.3 nM
B7 | 49 nM
[Sar]ICSRSLP[Oic]I[Pen]I[5‑Azaspiro(2.4)heptane‑1‑carboxylic acid]-OH (disulfide 3-11) [Example 194: ((N-Me)G)-IC+SRSLP-(Oic)-I-(Pen)+I-((5-Azaspiro[2.4]heptane-1-carboxylic acid)-OH] | 42 nM
B8 | 9.82 nM
B9 | 68 nM
B10 | 3.7 nM
B11 | 53 nM
B12 | 10.9 nM
[Sar]ICSRS[tBuAla]PPI[Pen]IP-{PEG2-NH2} (disulfide 3-11) [Example 207: ((N-Me)G)-IC+SRS-((tBu)A)-PPI-(Pen)+IP-(PEG1(10 atoms))-NH2] | 33.6 nM
